According to US20180171001A1:
Where a chain is given by its changes, count along the chain named.

B1: γ59κ3 (antibody, V domains shown)
VH: QIHLVQSGTEVKKPGSSVTVSCKAYGVNTFGLYAVNWVRQAPGQGLEYIGQIWRWKSSASHHFRGRVLISAVDLTGSSPPISSLEIKNVTSDDTAVYFCTTTSTYDEWSDLHHDGVMAFSSWGQGTLISVSA
VL: DIQMTQSPSTLSASIGDTVRISCRASQSITGNWLAWYHQRPGKAPRLLIYRGSRLLGGVPSRFSGSAAGTDFTLTIANLQAEDFGTFYCQQYDTYPGTFGQGTKVEVKR
B2: γ23κ5 (antibody, V domains shown)
VH: B1 VH with G45S, L68I, V89L, Y105S, E107Y, D110G
VL: B1 VL with I15T, L34V, H38Q, S53A, R54A, S64R, A77G
B3: γ22κ5 (antibody, V domains shown)
VH: B1 VH with G45S, S77P, V89L, E107K, D110G
VL: B1 VL with I15T, L34V, H38Q, S53A, R54A, S64R, A77G
B4: γ3κ11 (antibody, V domains shown)
VH: QIHLVQSGTEVKKPGSSVTVSCKAYGVNTFGLYAVSWVRQAPGQRLEYIGQIRRWKSSASHHFRGRVTVSAVDPTGSSPPISSLEIRDLTTDDTAVYFCTTTSTSDYWSGLHNERGTAFSSWGQGTLISVSA
VL: B1 VL with I15V, D17G, N32G
B5: γ59κ5 (antibody, V domains shown)
VH: B1 VH
VL: B1 VL with I15T, L34V, H38Q, S53A, R54A, S64R, A77G
B6: 8ANC3430 (antibody, V domains shown)
VH: B1 VH with G45S, L68I, V89L, Y105S, E107Y, D110G
VL: B1 VL with I15V, N32G
B7: 8ANC3630 (antibody, V domains shown)
VH: B1 VH with G45S, V89L, E107R, D110G
VL: B1 VL with N32G
B8: 8ANC3484 (antibody, V domains shown)
VH: B1 VH with G45S, V89L, E107R, D110G
VL: B1 VL with L34V, H38Q, S53A, R54A, S64R, A77G
B9: γ3κ5 (antibody, V domains shown)
VH: B4 VH
VL: B1 VL with I15T, L34V, H38Q, S53A, R54A, S64R, A77G
B10: 8ANC3044 (antibody, V domains shown)
VH: B1 VH with K12R, G45S, V89L, E107K, D110G
VL: B1 VL with L34V, H38Q, S53A, R54A, A77G, A81T
B11: γ3κ3 (antibody, V domains shown)
VH: B4 VH
VL: B1 VL

Molecular target: Env of HIV-1 strain R1166.c1 (HIV-1)
Test: cell-based or functional assay

Point of comparison: B11, neutralization IC50 2.2 µg/mL. Against it:
- B1 — 11-fold higher, 24.2 µg/mL
- B2 — 2.1-fold lower, 1.07 µg/mL
- B3 — within 1.5-fold, 2.4 µg/mL
- B4 — within 1.5-fold, 1.79 µg/mL
- B5 — 13-fold higher, 28.2 µg/mL
- B6 — 1.7-fold higher, 3.64 µg/mL
- B7 — 1.5-fold lower, 1.45 µg/mL
- B8 — 2.1-fold lower, 1.03 µg/mL
- B9 — within 1.5-fold, 2.07 µg/mL
- B10 — within 1.5-fold, 2.38 µg/mL

Molecular target: Env of HIV-1 strain 3016.v5.c45 (HIV-1)
Test: cell-based or functional assay

Point of comparison: B8, neutralization IC50 0.131 µg/mL. Against it:
- B1 — higher, > 15 µg/mL
- B2 — within 1.5-fold, 0.091 µg/mL
- B3 — within 1.5-fold, 0.103 µg/mL
- B4 — within 1.5-fold, 0.145 µg/mL
- B5 — higher, > 15 µg/mL
- B6 — 2.1-fold higher, 0.271 µg/mL
- B7 — within 1.5-fold, 0.136 µg/mL
- B9 — 2.4-fold higher, 0.314 µg/mL
- B10 — 1.8-fold higher, 0.242 µg/mL
- B11 — 2.6-fold higher, 0.347 µg/mL

Molecular target: Env of HIV-1 strain PVO.4 (HIV-1)
Test: cell-based or functional assay

Point of comparison: B7, neutralization IC50 0.102 µg/mL. Against it:
- B1 — higher, > 15 µg/mL
- B2 — 2.4-fold lower, 0.043 µg/mL
- B3 — 3.5-fold higher, 0.352 µg/mL
- B4 — within 1.5-fold, 0.074 µg/mL
- B5 — higher, > 15 µg/mL
- B6 — 2-fold higher, 0.206 µg/mL
- B8 — within 1.5-fold, 0.077 µg/mL
- B9 — within 1.5-fold, 0.081 µg/mL
- B10 — 2.5-fold higher, 0.26 µg/mL
- B11 — 1.7-fold higher, 0.17 µg/mL

Molecular target: Env of HIV-1 strain 251-18 (HIV-1)
Test: cell-based or functional assay

Point of comparison: B10, neutralization IC50 0.858 µg/mL. Against it:
- B1 — higher, > 15 µg/mL
- B2 — 4.9-fold lower, 0.176 µg/mL
- B3 — 2-fold higher, 1.7 µg/mL
- B4 — higher, > 15 µg/mL
- B5 — 8.1-fold higher, 6.96 µg/mL
- B6 — 7.2-fold higher, 6.17 µg/mL
- B7 — within 1.5-fold, 0.73 µg/mL
- B8 — 2.2-fold lower, 0.391 µg/mL
- B9 — within 1.5-fold, 0.721 µg/mL
- B11 — higher, > 15 µg/mL

Molecular target: Env of HIV-1 strain 231965.c1 (HIV-1)
Test: cell-based or functional assay

Point of comparison: B2, neutralization IC50 0.291 µg/mL. Against it:
- B1 — higher, > 15 µg/mL
- B3 — 2.4-fold higher, 0.69 µg/mL
- B4 — 1.6-fold higher, 0.455 µg/mL
- B5 — higher, > 15 µg/mL
- B6 — 4.1-fold higher, 1.19 µg/mL
- B7 — within 1.5-fold, 0.375 µg/mL
- B8 — within 1.5-fold, 0.294 µg/mL
- B9 — 2.4-fold higher, 0.697 µg/mL
- B10 — 4.6-fold higher, 1.33 µg/mL
- B11 — 2.5-fold higher, 0.727 µg/mL

Molecular target: Env of HIV-1 strain 3365.v2.c20 (HIV-1)
Test: cell-based or functional assay

B1 and B2 cannot be ordered by neutralization IC50: greater than 15 µg/mL for the first, greater than 15 µg/mL for the second.

B3 and B4 cannot be ordered by neutralization IC50: greater than 15 µg/mL for the first, greater than 15 µg/mL for the second.

B5 and B6 cannot be ordered by neutralization IC50: greater than 15 µg/mL for the first, greater than 23 µg/mL for the second.

B7 and B8 cannot be ordered by neutralization IC50: greater than 30 µg/mL for the first, greater than 30 µg/mL for the second.

B9 and B10 cannot be ordered by neutralization IC50: greater than 15 µg/mL for the first, greater than 30 µg/mL for the second.

Binder B11 has a neutralization IC50 greater than 15 µg/mL.

Molecular target: Env of HIV-1 strain Du172.17 (HIV-1)
Test: cell-based or functional assay

Point of comparison: B9, neutralization IC50 3.73 µg/mL. Against it:
- B1 — higher, > 15 µg/mL
- B2 — 2.1-fold lower, 1.81 µg/mL
- B3 — higher, > 15 µg/mL
- B4 — higher, > 15 µg/mL
- B5 — higher, > 15 µg/mL
- B6 — higher, > 23 µg/mL
- B7 — higher, > 30 µg/mL
- B8 — within 1.5-fold, 4.01 µg/mL
- B10 — higher, > 30 µg/mL
- B11 — higher, > 15 µg/mL

Molecular target: Env of HIV-1 strain ZM53M.PB12 (HIV-1)
Test: cell-based or functional assay

Point of comparison: B8, neutralization IC50 11.6 µg/mL. Against it:
- B1 — higher, > 15 µg/mL
- B2 — 2-fold lower, 5.88 µg/mL
- B3 — higher, > 15 µg/mL
- B4 — higher, > 15 µg/mL
- B5 — 2.1-fold higher, 24.1 µg/mL
- B6 — higher, > 23 µg/mL
- B7 — higher, > 30 µg/mL
- B9 — higher, > 15 µg/mL
- B10 — within 1.5-fold, 15.2 µg/mL
- B11 — higher, > 15 µg/mL

Molecular target: Env of HIV-1 strain REJO4541.67 (HIV-1)
Test: cell-based or functional assay

Point of comparison: B1, neutralization IC50 8.54 µg/mL. Against it:
- B2 — 94-fold lower, 0.091 µg/mL
- B3 — 11-fold lower, 0.795 µg/mL
- B4 — 94-fold lower, 0.091 µg/mL
- B5 — 1.8-fold lower, 4.67 µg/mL
- B6 — 43-fold lower, 0.198 µg/mL
- B7 — 3.2-fold lower, 2.65 µg/mL
- B8 — 73-fold lower, 0.117 µg/mL
- B9 — 88-fold lower, 0.097 µg/mL
- B10 — 31-fold lower, 0.278 µg/mL
- B11 — 33-fold lower, 0.26 µg/mL

Molecular target: Env of HIV-1 strain ZM109F.PB4 (HIV-1)
Test: cell-based or functional assay

B1 and B2 cannot be ordered by neutralization IC50: greater than 15 µg/mL for the first, greater than 15 µg/mL for the second.

B3 and B4 cannot be ordered by neutralization IC50: greater than 15 µg/mL for the first, greater than 15 µg/mL for the second.

B5 and B6 cannot be ordered by neutralization IC50: greater than 15 µg/mL for the first, greater than 23 µg/mL for the second.

B7 and B8 cannot be ordered by neutralization IC50: greater than 30 µg/mL for the first, greater than 30 µg/mL for the second.

B9 and B10 cannot be ordered by neutralization IC50: greater than 15 µg/mL for the first, greater than 30 µg/mL for the second.

B11 was tested, and the neutralization IC50 was greater than 15 µg/mL.

Molecular target: Env of HIV-1 strain YU2.DG (HIV-1)
Test: cell-based or functional assay

Point of comparison: B2, neutralization IC50 0.136 µg/mL. Against it:
- B1 — 66-fold higher, 8.97 µg/mL
- B3 — 4.2-fold higher, 0.569 µg/mL
- B4 — 2-fold higher, 0.276 µg/mL
- B5 — 54-fold higher, 7.28 µg/mL
- B6 — 4-fold higher, 0.545 µg/mL
- B7 — 3.4-fold higher, 0.468 µg/mL
- B8 — 3.4-fold higher, 0.461 µg/mL
- B9 — within 1.5-fold, 0.2 µg/mL
- B10 — 5.5-fold higher, 0.747 µg/mL
- B11 — 3.1-fold higher, 0.42 µg/mL

Molecular target: Env of HIV-1 strain H086.8 (HIV-1)
Test: cell-based or functional assay

Point of comparison: B9, neutralization IC50 0.434 µg/mL. Against it:
- B1 — higher, > 15 µg/mL
- B2 — within 1.5-fold, 0.474 µg/mL
- B3 — higher, > 15 µg/mL
- B4 — 1.8-fold higher, 0.778 µg/mL
- B5 — higher, > 15 µg/mL
- B6 — higher, > 23 µg/mL
- B7 — within 1.5-fold, 0.3 µg/mL
- B8 — within 1.5-fold, 0.394 µg/mL
- B10 — 8.8-fold higher, 3.83 µg/mL
- B11 — 7.6-fold higher, 3.31 µg/mL

Molecular target: Env of HIV-1 strain X1254_c3 (HIV-1)
Test: cell-based or functional assay

Point of comparison: B10, neutralization IC50 4.54 µg/mL. Against it:
- B1 — within 1.5-fold, 3.39 µg/mL
- B2 — 4.9-fold lower, 0.919 µg/mL
- B3 — 3-fold lower, 1.52 µg/mL
- B4 — 2-fold lower, 2.31 µg/mL
- B5 — 2.1-fold higher, 9.42 µg/mL
- B6 — within 1.5-fold, 4.28 µg/mL
- B7 — 1.9-fold lower, 2.38 µg/mL
- B8 — 2.1-fold lower, 2.19 µg/mL
- B9 — 2.6-fold lower, 1.72 µg/mL
- B11 — 2.5-fold lower, 1.82 µg/mL

Molecular target: Env of HIV-1 strain 250-4 (HIV-1)
Test: cell-based or functional assay

B1 and B2 cannot be ordered by neutralization IC50: greater than 15 µg/mL for the first, greater than 15 µg/mL for the second.

B3 and B4 cannot be ordered by neutralization IC50: greater than 15 µg/mL for the first, greater than 15 µg/mL for the second.

B5 and B6 cannot be ordered by neutralization IC50: greater than 15 µg/mL for the first, greater than 23 µg/mL for the second.

B7 and B8 cannot be ordered by neutralization IC50: greater than 30 µg/mL for the first, greater than 30 µg/mL for the second.

B9 and B10 cannot be ordered by neutralization IC50: greater than 15 µg/mL for the first, greater than 30 µg/mL for the second.

B11 was tested, and the neutralization IC50 was greater than 15 µg/mL.

Molecular target: Env of MuLV
Test: cell-based or functional assay

B1 and B2 cannot be ordered by neutralization IC50: greater than 30 µg/mL for the first, greater than 30 µg/mL for the second.

B3 and B4 cannot be ordered by neutralization IC50: greater than 30 µg/mL for the first, greater than 30 µg/mL for the second.

B5 and B6 cannot be ordered by neutralization IC50: greater than 30 µg/mL for the first, greater than 23 µg/mL for the second.

B7 and B8 cannot be ordered by neutralization IC50: greater than 30 µg/mL for the first, greater than 30 µg/mL for the second.

B9 and B10 cannot be ordered by neutralization IC50: greater than 15 µg/mL for the first, greater than 30 µg/mL for the second.

B11 was tested, and the neutralization IC50 was greater than 30 µg/mL.

Molecular target: Env of HIV-1 strain 3415.v1.c1 (HIV-1)
Test: cell-based or functional assay

Point of comparison: B7, neutralization IC50 28 µg/mL. Against it:
- B1 — not separable, > 15 µg/mL
- B2 — 19-fold lower, 1.48 µg/mL
- B3 — not separable, > 15 µg/mL
- B4 — not separable, > 15 µg/mL
- B5 — not separable, > 15 µg/mL
- B6 — not separable, > 23 µg/mL
- B8 — 48-fold lower, 0.589 µg/mL
- B9 — not separable, > 15 µg/mL
- B10 — 3.7-fold lower, 7.56 µg/mL
- B11 — not separable, > 15 µg/mL
